Here are results for ten molecules from patent US7354588B1, “Functional derivatives of ICAM-1 with altered ability to bind LFA-1 or HRV” (Dana Farber Cancer Institute, priority 1987, dated 2008).

Positions count from the first letter of the chain named. Entries after “also recorded” stand apart in the source; their conditions may differ.

The chains are these.
B1: V4/G: ICAM-1 mutant, replacement of V4 with G (protein, UniProt P05362 28-532, looked up, variant V4G)
Intercellular adhesion …: QTSGSPSKVILPRGGSVLVTCSTSCDQPKLLGIETPLPKKELLLPGNNRKVYELSNVQEDSQPMCYSNCPDGQSTAKTFLTVYWTPERVELAPLPSWQPVGKNLTLRCQVEGGAPRANLTVVLLRGEKELKREPAVGEPAEVTTTVLVRRDHHGANFSCRTELDLRPQGLELFENTSAPYQLQTFVLPATPPQLVSPRVLEVDTQGTVVCSLDGLFPVSEAQVHLALGDQRLNPTVTYGNDSFSAKASVSVTAEDEGTQRLTCAVILGNQSQETLQTVTIYSFPAPNVILTKPEVSEGTEVTVKCEAHPRAKVTLNGVPAQPLGPRAQLLLKATPEDNGRSFSCSATLEVAGQLIHKNQTRELRVLYGPRLDERDCPGNWTWPENSQQTPMCQAWGNPLPELKCLKDGTFPLPIGESVTVTRDLEGTYLCRARSTQGEVTRKVTVNVLSPRYEIVIITVVAAAVIMGTAGLSTYLYNRQRKIKKYRLQQAQKGTPMKPNTQATPP
B2: Q73/T: ICAM-1 substitution mutant, Q73 to T (protein, UniProt P05362 28-532, looked up, variant Q73T)
Intercellular adhesion …: B1 Intercellular adhesion … with G4V, Q73T
B3: E34/A: ICAM-1 substitution mutant, E34 replaced with A (protein, UniProt P05362 28-532, looked up, variant E34A)
Intercellular adhesion …: B1 Intercellular adhesion … with G4V, E34A
B4: Q73/H: ICAM-1 substitution mutant, Q73 to H (protein, UniProt P05362 28-532, looked up, variant Q73H)
Intercellular adhesion …: B1 Intercellular adhesion … with G4V, Q73H
B5: R13/E: ICAM-1 mutant, replacement of R13 with E (protein, UniProt P05362 28-532, looked up, variant R13E)
Intercellular adhesion …: B1 Intercellular adhesion … with G4V, R13E
B6: N103/K: ICAM-1 mutant, replacement of N103 with K (protein, UniProt P05362 28-532, looked up, variant N103K)
Intercellular adhesion …: B1 Intercellular adhesion … with G4V, N103K
B7: Q27/L: ICAM-1 substitution mutant, Q27 to L (protein, UniProt P05362 28-532, looked up, variant Q27L)
Intercellular adhesion …: B1 Intercellular adhesion … with G4V, Q27L
B8: N175/A: ICAM-1 mutant, glycosylation site N175 replaced with A (protein, UniProt P05362 28-532, looked up, variant N175A)
Intercellular adhesion …: B1 Intercellular adhesion … with G4V, N175A
B9: Q58/H: ICAM-1 substitution mutant, Q58 replaced with H (protein, UniProt P05362 28-532, looked up, variant Q58H)
Intercellular adhesion …: B1 Intercellular adhesion … with G4V, Q58H
B10: E90/K: ICAM-1 substitution mutant, E90 to K (protein, UniProt P05362 28-532, looked up, variant E90K)
Intercellular adhesion …: B1 Intercellular adhesion … with G4V, E90K

The target of one assay is T1, LFA-1 (Homo sapiens, UniProt P05107+P20701).
T1 construct: endogenous in cells
T1 sequence (P20701 26-1170): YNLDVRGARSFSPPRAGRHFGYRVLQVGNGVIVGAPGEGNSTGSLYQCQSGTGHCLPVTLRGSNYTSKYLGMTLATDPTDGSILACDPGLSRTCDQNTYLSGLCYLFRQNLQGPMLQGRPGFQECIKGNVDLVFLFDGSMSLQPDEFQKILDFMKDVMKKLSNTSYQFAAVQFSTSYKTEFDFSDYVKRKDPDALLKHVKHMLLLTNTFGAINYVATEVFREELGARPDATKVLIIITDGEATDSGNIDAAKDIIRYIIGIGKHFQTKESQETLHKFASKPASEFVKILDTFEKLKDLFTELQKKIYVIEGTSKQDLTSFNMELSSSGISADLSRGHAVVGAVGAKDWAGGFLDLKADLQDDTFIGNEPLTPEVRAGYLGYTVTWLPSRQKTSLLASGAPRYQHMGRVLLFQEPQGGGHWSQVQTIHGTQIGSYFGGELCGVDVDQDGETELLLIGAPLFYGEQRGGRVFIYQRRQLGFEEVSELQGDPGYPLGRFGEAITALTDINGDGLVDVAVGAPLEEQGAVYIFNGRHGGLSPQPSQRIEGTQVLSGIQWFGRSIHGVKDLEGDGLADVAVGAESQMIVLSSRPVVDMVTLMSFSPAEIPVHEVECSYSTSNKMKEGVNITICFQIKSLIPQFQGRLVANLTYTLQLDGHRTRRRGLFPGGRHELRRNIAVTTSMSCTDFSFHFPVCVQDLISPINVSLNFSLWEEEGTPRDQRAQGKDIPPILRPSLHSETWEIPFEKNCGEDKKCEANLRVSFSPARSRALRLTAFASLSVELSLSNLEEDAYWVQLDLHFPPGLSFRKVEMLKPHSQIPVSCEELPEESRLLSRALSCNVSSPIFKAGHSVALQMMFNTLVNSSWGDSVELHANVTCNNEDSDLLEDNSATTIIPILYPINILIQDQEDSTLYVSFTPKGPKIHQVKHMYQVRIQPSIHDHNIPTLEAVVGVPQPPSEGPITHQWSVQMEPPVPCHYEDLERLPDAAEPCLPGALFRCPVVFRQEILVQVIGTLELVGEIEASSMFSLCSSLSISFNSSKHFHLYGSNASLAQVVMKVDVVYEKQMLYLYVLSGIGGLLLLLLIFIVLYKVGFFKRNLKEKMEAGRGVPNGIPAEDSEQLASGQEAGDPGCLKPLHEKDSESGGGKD
T1 sequence (P05107 23-769): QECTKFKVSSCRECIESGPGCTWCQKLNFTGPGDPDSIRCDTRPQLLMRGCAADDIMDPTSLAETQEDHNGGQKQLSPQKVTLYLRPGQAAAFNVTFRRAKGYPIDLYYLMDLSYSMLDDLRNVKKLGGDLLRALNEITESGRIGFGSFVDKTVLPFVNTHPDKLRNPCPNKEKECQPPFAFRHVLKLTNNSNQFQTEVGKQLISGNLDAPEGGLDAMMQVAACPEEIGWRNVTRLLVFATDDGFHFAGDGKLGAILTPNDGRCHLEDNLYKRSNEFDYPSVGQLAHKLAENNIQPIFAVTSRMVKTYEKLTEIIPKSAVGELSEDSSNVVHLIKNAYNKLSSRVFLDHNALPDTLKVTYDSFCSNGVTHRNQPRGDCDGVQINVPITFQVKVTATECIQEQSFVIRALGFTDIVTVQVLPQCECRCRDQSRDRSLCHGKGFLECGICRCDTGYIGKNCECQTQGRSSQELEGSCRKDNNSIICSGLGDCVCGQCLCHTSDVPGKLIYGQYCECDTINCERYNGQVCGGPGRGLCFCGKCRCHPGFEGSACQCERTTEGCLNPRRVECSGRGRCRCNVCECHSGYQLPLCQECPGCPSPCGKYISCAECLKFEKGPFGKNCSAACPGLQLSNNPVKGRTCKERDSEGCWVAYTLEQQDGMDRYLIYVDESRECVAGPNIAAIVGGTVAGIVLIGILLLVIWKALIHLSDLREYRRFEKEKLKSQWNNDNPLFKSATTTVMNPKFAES
Briefly: Adherence of COS cells expressing ICAM-1 or ICAM-1 mutants to plastic-bound purified LFA-1. Conditions: COS cells expressing ICAM-1 mutant adhering to LFA-1 coated plastic; normalized for percent of cells expressing mutant and for wild type binding; mean. Type of assay: cell-based.
On to B1, for which the “LFA-1 Binding %” value is 64%.

For B2, the “LFA-1 Binding %” value was 40%.

Consider B3, for which the “LFA-1 Binding %” value worked out at 0%.

In the case of B4, the “LFA-1 Binding %” value amounted to 12%.

For the molecule B5, the “LFA-1 Binding %” value is listed as 1%.

Turning to B6, the “LFA-1 Binding %” value is listed as 12%.

Take B7: the “LFA-1 Binding %” value is 37%.

With B8, the “LFA-1 Binding %” value stood at 67%.

As to B9, the “LFA-1 Binding %” value is 109%.

For B10, the “LFA-1 Binding %” value is reported as 34%.

Staying with this assay, now noted: COS cells expressing the mutant, relative to wild type.
As to B1, the “LFA-1 binding of ICAM-1 mutant (in words)” value (from here on “LFA-1 binding … (in words)”) is “less able to bind to LFA-1”.

Consider B2, for which the “decrease in LFA-1 binding” value is “two-fold”.

As for B3, the “LFA-1 binding … (in words)” value was “completely eliminates LFA-1 binding; also recorded: totally eliminates LFA-1 binding”.

Regarding B4, the “decrease in LFA-1 binding” value turned out to be 10 fold.

In the case of B5, the “LFA-1 binding … (in words)” value is on record as “substantially less capacity to bind LFA-1”.

Turning to B6, the “LFA-1 binding … (in words)” value was “substantially incapable of binding LFA-1”.

Turning to B8, the “LFA-1 binding … (in words)” value was “did not appear to substantially effect” and the “decrease in LFA-1 binding” value is “approximately two-fold”.

For the molecule B9, the “LFA-1 binding … (in words)” value is given as “substantially normal capacity to bind LFA-1”.

The assay is the same for the next values; noted with them: COS cells expressing the mutant, relative to wild type; listed as E34.
For B3, the “LFA-1 binding … (in words)” value is “substantially less capacity to bind LFA-1”.

The test system of a further assay is R6.5 mAb. Briefly: Indirect immunofluorescence flow cytofluorometry: mAb R6.5 binding to COS cells expressing ICAM-1 mutants (SLFI, % CL203). Type of assay: cell-based. Conditions: SLFI normalized to CL203 SLFI of the mutant. As for the experimental part: (§1) For HRV binding studies, COS cells were reseeded in a 24 well plate. One day later, the confluent monolayer was washed twice with 1 ml of RPMI 1640/10 mM MgCl2/25 mM Hepes pH 7.3 (rhinovirus-14 buffer). Transfected COS cells were labeled with 51Cr for binding to LFA-1 coated plastic as previously described (Staunton, D. E., et al., Nature 339:61-64 (1989). Immunoprecipitation and indirect immunofluorescence was performed using ICAM-1 MAb RR1/1 (Rothlein, R., et al., J. Immunol. 137:1270-1274 (1986)), R6.5 (Rothlein, R., et al., J. Immunol. 141:1665-1669 (1988)), LB-1 (Clark, E. A., et al., Hum. Immunol. 16:100-113 (1986)) and CL203 (Maio, M., J. Immunol. 143:181-188 (1989), all of which references are incorporated herein by reference).
(§2) Binding of RR1, R6.5, and LB-2 mAb was normalized to binding of CL203 mAb using Specific Linear Fluorescence Intensity (SLFI): % CL203=(mAbSLFI)×100)/CL203mABSLFI
(§3) In Table 25, the notation for the mutations uses the one-letter code for the wild-type sequence followed by a slash and the one-letter code for the corresponding mutant sequence. The position of the first amino acid within the sequence is indicated. Wild type residues precede the slash followed by the residues they were substituted for in the mutant. COS cells expressing ICAM-1 mutants were tested for adherence to LFA-1 coated plastic and for binding 35S met-labeled HRV14. LFA-1 and HRV14 binding is normalized for percent of cells expressing mutant ICAM-1 and for binding of wild type expressing cells. Binding is presented as mean and standard error (SE) for multiple experiments (n). Effects of two-fold or greater were reproducible in LFA-1, HRV and mAb binding assays and thus considered significant (bold and underlined). The specific linear fluorescence intensity (SLFI) of CL203 for each mutant is normalized to that of wild type CL203 SLFI (% WT) as discussed above. The SLFI of RR1/1, R6.5 and LB-2 SLFI is normalized to the CL203 SLFI of the mutant (% CL203) as described above.
Regarding B1, the “SLFI (% CL203) R6.5” value came to 73 % CL203.

As for B2, the “SLFI (% CL203) R6.5” value worked out at 86 % CL203.

Take B3: the “SLFI (% CL203) R6.5” value came out at 150 % CL203.

As for B4, the “SLFI (% CL203) R6.5” value came to 80 % CL203.

Take B5: the “SLFI (% CL203) R6.5” value is reported as 48 % CL203.

Turning to B6, the “SLFI (% CL203) R6.5” value is reported as 60 % CL203.

Turning to B7, the “SLFI (% CL203) R6.5” value is 75 % CL203.

B8: the “SLFI (% CL203) R6.5” value was found to be 175 % CL203.

Take B9: the “SLFI (% CL203) R6.5” value is recorded as 107 % CL203.

Regarding B10, the “SLFI (% CL203) R6.5” value is reported as 123 % CL203.

Another assay relates to HRV14. Kind of assay: Binding of [^35S]-Met labeled HRV14 to COS cells expressing ICAM-1 mutants. Type of assay: cell-based, human rhinovirus 14. Conditions: 35S met-labeled HRV14 binding to COS cells expressing ICAM-1 mutant; normalized for percent of cells expressing mutant and for wild type binding; mean.
Consider B1, for which the “HRV Binding %” value worked out at 30%.

For B2, the “HRV Binding %” value worked out at 133%.

As for B3, the “HRV Binding %” value was found to be 66%.

With B4, the “HRV Binding %” value came out at 117%.

Turning to B5, the “HRV Binding %” value stood at 10%.

Take B6: the “HRV Binding %” value was 13%.

Turning to B7, the “HRV Binding %” value is 57%.

B8: the “HRV Binding %” value stood at 129%.

As to B9, the “HRV Binding %” value is given as 1%.

For B10, the “HRV Binding %” value came to 50%.

The assay is the same for the next values; noted with them: COS cells expressing the mutant, relative to wild type.
For B3, the “HRV14 binding of ICAM-1 mutant (in words)” value (“HRV14 binding … (in words)” for short) is on record as “weak or a non-detectable affect on HRV binding” and the “decrease in HRV14 binding” value turned out to be 2 fold.

As for B4, the “HRV14 binding … (in words)” value was “weak or a non-detectable affect on HRV binding”.

Regarding B9, the “HRV14 binding … (in words)” value is “virtually eliminated HRV14 binding”.

The subject of a further assay is RR1/1 mAb. Briefly: Indirect immunofluorescence flow cytofluorometry: mAb RR1/1 binding to COS cells expressing ICAM-1 mutants (SLFI, % CL203). Conditions: SLFI normalized to CL203 SLFI of the mutant. Type of assay: cell-based. As for the experimental part: as §1, §2, §3
With B1, the “SLFI (% CL203) RR/1” value is 47 % CL203.

Consider B2, for which the “SLFI (% CL203) RR/1” value stood at 71 % CL203.

Turning to B3, the “SLFI (% CL203) RR/1” value is recorded as 142 % CL203.

On to B4, for which the “SLFI (% CL203) RR/1” value is recorded as 21 % CL203.

Take B5: the “SLFI (% CL203) RR/1” value was 4 % CL203.

As to B6, the “SLFI (% CL203) RR/1” value is on record as 17 % CL203.

On to B7, for which the “SLFI (% CL203) RR/1” value came to 75 % CL203.

Take B8: the “SLFI (% CL203) RR/1” value was determined as 162 % CL203.

For the molecule B9, the “SLFI (% CL203) RR/1” value is recorded as 93 % CL203.

With B10, the “SLFI (% CL203) RR/1” value is 100 % CL203.

The next assay relates to CL203 mAb. Briefly: Indirect immunofluorescence flow cytofluorometry: mAb CL203 binding to COS cells expressing ICAM-1 mutants (SLFI, % WT). It counts as cell-based. Conditions: COS cells expressing the mutant, relative to wild type. As for the experimental part:
as §1, §2, §3
Regarding B7, the “binding of MAb CL203 (in words)” value is on record as “specifically reduced level of expression”.

As for B10, the “binding of MAb CL203 (in words)” value is recorded as “specifically reduced level of expression”.

The assay is the same for the next values; noted with them: SLFI of CL203 for mutant normalized to wild type CL203 SLFI; level of expression.
For B1, the “Cl203 % WT (SLFI)” value came to 111 % WT.

Regarding B2, the “Cl203 % WT (SLFI)” value worked out at 218 % WT.

With B3, the “Cl203 % WT (SLFI)” value is recorded as 132 % WT.

Take B4: the “Cl203 % WT (SLFI)” value came to 139 % WT.

Take B5: the “Cl203 % WT (SLFI)” value amounted to 202 % WT.

In the case of B6, the “Cl203 % WT (SLFI)” value worked out at 91 % WT.

As to B7, the “Cl203 % WT (SLFI)” value stood at 33 % WT.

Consider B8, for which the “Cl203 % WT (SLFI)” value is reported as 80 % WT.

Take B9: the “Cl203 % WT (SLFI)” value was determined as 135 % WT.

As for B10, the “Cl203 % WT (SLFI)” value was determined as 29 % WT.

A further assay concerns LB-2 mAb. Briefly: Indirect immunofluorescence flow cytofluorometry: mAb LB-2 binding to COS cells expressing ICAM-1 mutants (SLFI, % CL203). Type of assay: cell-based. Conditions: SLFI normalized to CL203 SLFI of the mutant. As for the experimental part: as §1, §2, §3
With B1, the “SLFI (% CL203) LB-2” value is recorded as 58 % CL203.

With B2, the “SLFI (% CL203) LB-2” value is 114 % CL203.

With B3, the “SLFI (% CL203) LB-2” value came out at 142 % CL203.

Take B4: the “SLFI (% CL203) LB-2” value was 80 % CL203.

Regarding B5, the “SLFI (% CL203) LB-2” value came out at 4 % CL203.

With B6, the “SLFI (% CL203) LB-2” value amounted to 22 % CL203.

With B7, the “SLFI (% CL203) LB-2” value turned out to be 125 % CL203.

Consider B8, for which the “SLFI (% CL203) LB-2” value amounted to 150 % CL203.

For B9, the “SLFI (% CL203) LB-2” value is on record as 93 % CL203.

Regarding B10, the “SLFI (% CL203) LB-2” value is on record as 108 % CL203.
